Measured values reported in US20130309246A1.

Target: Notch (Notch pathway receptors) in MC3T3-E1 murine osteoblasts (mouse)
Assay: cell-based or functional assay

“human JAGGED1 overexpressed in SCP28 breast cancer cells (JAG1 OE tumor cells) (from UniProt P78504 34-1218) (ligand)” showed a Notch activity (firefly luciferase Notch reporter in MC3T3-E1 osteoblasts cocultured with JAG1 OE tumor cells) of 6 fold.
